The values that follow come from patent publication US20200392227A1 (LYVGEN BIOPHARMA, published 2020).

Read-outs that look alike come from different tables or passages of the source.

The target in assay [1] is T1, human FcRn protein (MednaBio, E1032) (human, UniProt P55899 24-297; P61769 21-119).
T1 construct: Bought; assays at pH 6
Put plainly: BLI. Put shortly:
(§1)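 Binding was measured by biolayer interferometry on an Octet Red96 System. Commercial human Fc receptor proteins were loaded at 20 μg/mL onto anti-penta-HIS biosensors, which were then dipped into an 8-point 1:3 dilution series of test IgG starting at 300 nM in PBS with 0.1% BSA and 0.02% Tween-20, at pH 7.2 for Fcγ receptors and pH 6 for FcRn. Kd, kon and koff were obtained by global fitting, with data fitted to a 1:1 binding model.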

Assay [2] has as its target T2, human FcRIIB/C protein (MednaBio, E1034) (human, UniProt P31994 43-217, limits assumed).
T2 construct: Bought as FcRIIB/C; also called FcγRIIB; CD32B
T2 sequence (looked up): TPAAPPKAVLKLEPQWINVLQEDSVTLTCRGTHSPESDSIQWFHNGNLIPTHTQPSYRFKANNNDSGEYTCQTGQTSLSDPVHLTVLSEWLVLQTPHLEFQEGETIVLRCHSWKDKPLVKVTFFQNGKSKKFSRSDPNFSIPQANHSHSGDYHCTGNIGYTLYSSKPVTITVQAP
Put plainly: BLI. The essentials:
as §1

For assay [3], the target named is T3, human FcRIIA protein (MednaBio, E1033) (human, UniProt P12318 34-218, limits assumed).
T3 construct: Bought; also called FcγRIIA
T3 sequence (looked up): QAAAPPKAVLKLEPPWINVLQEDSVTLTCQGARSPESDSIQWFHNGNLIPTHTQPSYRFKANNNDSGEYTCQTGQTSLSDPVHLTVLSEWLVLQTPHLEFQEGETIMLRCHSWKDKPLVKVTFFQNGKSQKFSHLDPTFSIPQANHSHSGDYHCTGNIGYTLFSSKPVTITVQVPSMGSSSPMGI
Description: BLI. Put shortly: as §1

The target of assay [4] is T4, human FcRI protein (MednaBio, E1031) (human, UniProt P12314 16-288, limits assumed).
T4 construct: Bought; loaded on anti-penta-HIS biosensors; also called FcγRI
T4 sequence (P12314 16-288 limits assumed): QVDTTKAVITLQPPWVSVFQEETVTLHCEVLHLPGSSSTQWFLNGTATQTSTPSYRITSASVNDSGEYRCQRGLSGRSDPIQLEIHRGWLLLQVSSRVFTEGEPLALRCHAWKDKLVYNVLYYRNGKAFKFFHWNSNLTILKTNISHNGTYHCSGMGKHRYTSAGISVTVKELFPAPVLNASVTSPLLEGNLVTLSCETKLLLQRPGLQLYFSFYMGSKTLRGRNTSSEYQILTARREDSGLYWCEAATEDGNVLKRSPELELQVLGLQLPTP
Description: BLI. The essentials: as §1

Assay [5] concerns the target T5, human FcRIIIA-F158 protein (MednaBio, E1036) (human, UniProt P08637 17-208).
T5 construct: Bought; also called FcγRIIIA(F)
Description: BLI. Put shortly:
as §1

In assay [6] the target is T6, human FcRIIIB protein (MednaBio, E1037) (human, UniProt O75015 17-200).
T6 construct: Bought; also called FcγRIIIB; FcgRIIIB
T6 sequence (O75015 17-200 limits assumed): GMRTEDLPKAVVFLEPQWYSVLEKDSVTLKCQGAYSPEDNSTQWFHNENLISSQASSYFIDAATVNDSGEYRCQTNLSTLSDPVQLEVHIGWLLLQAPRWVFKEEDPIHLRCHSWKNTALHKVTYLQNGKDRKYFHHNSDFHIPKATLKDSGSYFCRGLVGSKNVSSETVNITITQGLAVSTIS
Put plainly: BLI. Put shortly:
as §1

Assay [7] deals with T7, human FcRIIIA-V158 protein (MednaBio, E1035) (human, UniProt P08637 17-208).
T7 construct: Bought; also called FcγRIIIA(V); FcgRIIIA(V)
T7 sequence (P08637 17-208 F176V): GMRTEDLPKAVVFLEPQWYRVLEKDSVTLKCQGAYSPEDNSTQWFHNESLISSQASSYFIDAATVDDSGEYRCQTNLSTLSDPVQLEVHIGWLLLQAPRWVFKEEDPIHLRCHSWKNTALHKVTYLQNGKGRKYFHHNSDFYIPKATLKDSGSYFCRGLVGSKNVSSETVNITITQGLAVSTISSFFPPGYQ
Description: BLI. The essentials:
as §1

In assay [8] the target is T8, human FcγRIIA(R131) expressed on CHO cells (human, UniProt P12318 34-317).
T8 construct: whole, on cells
T8 sequence (looked up): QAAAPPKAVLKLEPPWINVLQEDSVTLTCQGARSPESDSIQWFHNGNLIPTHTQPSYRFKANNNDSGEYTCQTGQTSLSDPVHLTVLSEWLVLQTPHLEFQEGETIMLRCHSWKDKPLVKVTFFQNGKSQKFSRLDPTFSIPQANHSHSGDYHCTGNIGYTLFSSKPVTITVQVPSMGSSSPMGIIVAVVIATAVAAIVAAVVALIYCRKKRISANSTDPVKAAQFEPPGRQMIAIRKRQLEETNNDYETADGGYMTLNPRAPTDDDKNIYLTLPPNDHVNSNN
Description: FACS, CHO cells expressing FcγRIIA(R131). The protocol: FIGS. 1A-1W are charts showing binding activity of various IgG variants as indicated to different types of Fcγ receptors expressed on CHO-K1 cells at the various concentrations as indicated. The concentrations of each IgG variant, from left to right, are 0 μg/ml, 0.3 μg/ml, 1 μg/ml, 3 μg/ml, and 10 μg/ml in FIGS. 1A-1C, 1E-J, 1L-1M, 1P-1R, and 1T-1V. For FIGS. 1D, 1K, 10, 1S, and 1w the bars, from left to right, correspond to the following concentrations of IgG variant: 0.3 μg/ml, 1 μg/ml, 3 μg/ml, and 10 μg/ml.
(§2) For FACS analysis of the IgG mutants' binding to different FcγRs, FcγR overexpressing CHO cells were harvested using trypsin-EDTA and were suspended in cold staining buffer (3% BSA in PBS). Test IgG mutants, which were diluted in staining buffer, were added into the cells. The mixture was incubated 4° C. for 2 hours, and then washed twice with cold staining buffer and re-suspended in PE-labeled anti-human IgG followed by incubation at 4° C. for 2 hours. The mixture was washed twice with staining buffer and re-suspended in 2% PFA in PBS for FACS.

The target of assay [9] is T9, human FcγRIIA(H131) expressed on CHO cells (human, UniProt P12318 34-317).
T9 construct: whole, on cells
T9 sequence (looked up): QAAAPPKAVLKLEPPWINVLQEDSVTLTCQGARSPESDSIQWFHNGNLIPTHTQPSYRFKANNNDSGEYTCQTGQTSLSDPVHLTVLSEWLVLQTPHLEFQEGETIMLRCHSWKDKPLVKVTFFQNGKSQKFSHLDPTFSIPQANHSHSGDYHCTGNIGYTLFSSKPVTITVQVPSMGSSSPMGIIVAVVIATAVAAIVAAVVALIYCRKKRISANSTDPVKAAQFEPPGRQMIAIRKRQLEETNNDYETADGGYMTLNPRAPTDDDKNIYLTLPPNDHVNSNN
Description: FACS, CHO cells expressing FcγRIIA(H131). The method, then: as §2

Assay [10] has as its target T10, human FcγRIIC expressed on CHO cells (human, UniProt P31995 43-323).
T10 construct: whole, on cells
T10 sequence (looked up): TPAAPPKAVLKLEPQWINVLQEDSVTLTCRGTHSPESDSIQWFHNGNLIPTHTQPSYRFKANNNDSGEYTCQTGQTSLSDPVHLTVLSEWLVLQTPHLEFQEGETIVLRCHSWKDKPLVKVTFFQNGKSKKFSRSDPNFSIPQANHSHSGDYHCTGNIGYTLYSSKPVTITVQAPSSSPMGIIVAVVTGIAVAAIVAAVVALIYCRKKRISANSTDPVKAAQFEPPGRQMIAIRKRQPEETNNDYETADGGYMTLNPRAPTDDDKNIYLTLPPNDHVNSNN
Put plainly: FACS, CHO cells expressing FcγRIIC.

Assay [11] has as its target T1, human FcRn protein (MednaBio, E1032). Put plainly: BLI. This is another data set of the same source.
Assay [12] addresses T2, human FcRIIB/C protein (MednaBio, E1034). Put plainly: BLI. This is another data set of the same source.
Assay [13] has as its target T3, human FcRIIA protein (MednaBio, E1033). Put plainly: BLI. This is another data set of the same source.
For assay [14], the target named is T4, human FcRI protein (MednaBio, E1031). Description: BLI. The source holds these as a separate data set.
The target of assay [15] is T5, human FcRIIIA-F158 protein (MednaBio, …). Put plainly: BLI. The source holds these as a separate data set.
In assay [16] the target is T6, human FcRIIIB protein (MednaBio, E1037). Put plainly: BLI. The source holds these as a separate data set.
Assay [17] deals with T7, human FcRIIIA-V158 protein (MednaBio, …). Put plainly: BLI. The source holds these as a separate data set.
Assay [18] deals with T11, human FcγRIIB expressed on CHO cells (human, UniProt P31994 43-310).
T11 construct: whole, on cells; also called CD32B
T11 sequence (looked up): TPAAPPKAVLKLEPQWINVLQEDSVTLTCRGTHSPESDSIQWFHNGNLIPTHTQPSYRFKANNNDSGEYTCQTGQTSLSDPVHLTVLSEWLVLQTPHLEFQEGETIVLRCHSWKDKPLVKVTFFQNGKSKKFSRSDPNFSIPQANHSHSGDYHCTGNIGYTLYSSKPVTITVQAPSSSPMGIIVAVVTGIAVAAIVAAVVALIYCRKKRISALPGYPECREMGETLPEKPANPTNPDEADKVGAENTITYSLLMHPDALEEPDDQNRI
Description: FACS, CHO cells expressing FcγRIIB. The method, then:
as §2

T5 sequence (P08637 17-208 limits assumed): as the sequence (P08637 17-208 F176V) above, with V160F counted along it
T1 sequence (P55899 24-297 limits assumed, form in doubt, chain 1 of 2): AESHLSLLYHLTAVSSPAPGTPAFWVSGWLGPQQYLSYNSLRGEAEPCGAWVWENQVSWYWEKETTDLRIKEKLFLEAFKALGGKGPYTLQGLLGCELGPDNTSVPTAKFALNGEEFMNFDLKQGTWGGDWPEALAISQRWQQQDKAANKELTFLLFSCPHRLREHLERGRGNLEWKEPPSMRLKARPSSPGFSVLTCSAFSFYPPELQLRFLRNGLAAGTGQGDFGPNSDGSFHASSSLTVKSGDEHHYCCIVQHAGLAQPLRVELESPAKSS
T1 sequence (P61769 21-119 limits assumed, form in doubt, chain 2 of 2): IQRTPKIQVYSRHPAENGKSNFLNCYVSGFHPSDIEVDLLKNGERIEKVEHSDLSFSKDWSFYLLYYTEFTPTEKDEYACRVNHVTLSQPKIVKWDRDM

B1: anti-CD137 IgG1 with Fc variant G1mAA (antibody)
heavy: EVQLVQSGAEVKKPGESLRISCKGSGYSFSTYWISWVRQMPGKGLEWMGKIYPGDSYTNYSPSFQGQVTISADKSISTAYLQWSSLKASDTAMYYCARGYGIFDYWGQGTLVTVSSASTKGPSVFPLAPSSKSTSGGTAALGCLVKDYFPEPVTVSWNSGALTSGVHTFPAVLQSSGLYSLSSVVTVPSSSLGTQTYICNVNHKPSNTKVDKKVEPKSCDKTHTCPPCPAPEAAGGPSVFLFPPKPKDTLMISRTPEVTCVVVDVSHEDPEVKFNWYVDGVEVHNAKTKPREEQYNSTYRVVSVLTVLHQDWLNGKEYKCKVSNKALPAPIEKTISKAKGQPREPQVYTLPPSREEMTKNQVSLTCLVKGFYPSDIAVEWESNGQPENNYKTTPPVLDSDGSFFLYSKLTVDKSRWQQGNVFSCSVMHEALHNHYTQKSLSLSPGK
light: SYELTQPPSVSVSPGQTASITCSGDNIGDQYAHWYQQKPGQSPVLVIYQDKNRPSGIPERFSGSNSGNTATLTISGTQAMDEADYYCATYTGFGSLAVFGGGTKLTVLGQPKAAPSVTLFPPSSEELQANKATLVCLISDFYPGAVTVAWKADSSPVKAGVETTTPSKQSNNKYAASSYLSLTPEQWKSHRSYSCQVTHEGSTVEKTVAPTECS
notes: copies: 2 + 2
Consider B1, for which the Kd in assay [1] amounted to 18.8 nM; in [2], 656 nM; in assay [3], 800 nM; in assay [4], 235 nM; in [5] it was 1500 nM; in assay [6] it was 556 nM. Also, the Kd in assay [7] came to 456 nM. For the same molecule, the koff in assay [1] was found to be 0.015 s⁻¹; in assay [2], 0.156 s⁻¹; in [3], 0.247 s⁻¹; in [4] it was 0.0337 s⁻¹; in [5], 0.175 s⁻¹; in [6], 0.144 s⁻¹. The molecule further showed a koff in [7] of 0.042 s⁻¹. The kon in [1] was 803000 M⁻¹ s⁻¹; in [2] it was 238000 M⁻¹ s⁻¹; in assay [3], 310000 M⁻¹ s⁻¹; in [4], 144000 M⁻¹ s⁻¹; in [5], 116000 M⁻¹ s⁻¹; in [6], 258000 M⁻¹ s⁻¹. The molecule also displayed a kon in assay [7] of 92300 M⁻¹ s⁻¹. Besides, the binding result in [8] was “no binding (tested: 10 ug/ml)”.

B2: anti-CD137 IgG1 with Fc variant G1m2 (antibody)
heavy: EVQLVQSGAEVKKPGESLRISCKGSGYSFSTYWISWVRQMPGKGLEWMGKIYPGDSYTNYSPSFQGQVTISADKSISTAYLQWSSLKASDTAMYYCARGYGIFDYWGQGTLVTVSSASTKGPSVFPLAPSSKSTSGGTAALGCLVKDYFPEPVTVSWNSGALTSGVHTFPAVLQSSGLYSLSSVVTVPSSSLGTQTYICNVNHKPSNTKVDKKVEPKSCDKTHTCPPCPAPELLGPSVFLFPPKPKDTLMISRTPEVTCVVVDVSHEDPEVKFNWYVDGVEVHNAKTKPREEQYNSTYRVVSVLTVLHQDWLNGKEYKCKVSNKALPAPIEKTISKAKGQPREPQVYTLPPSREEMTKNQVSLTCLVKGFYPSDIAVEWESNGQPENNYKTTPPVLDSDGSFFLYSKLTVDKSRWQQGNVFSCSVMHEALHNHYTQKSLSLSPGK
light: SYELTQPPSVSVSPGQTASITCSGDNIGDQYAHWYQQKPGQSPVLVIYQDKNRPSGIPERFSGSNSGNTATLTISGTQAMDEADYYCATYTGFGSLAVFGGGTKLTVLGQPKAAPSVTLFPPSSEELQANKATLVCLISDFYPGAVTVAWKADSSPVKAGVETTTPSKQSNNKYAASSYLSLTPEQWKSHRSYSCQVTHEGSTVEKTVAPTECS
notes: copies: 2 + 2
As for B2, the binding result in assay [9] was “no binding (tested: 10 ug/ml)”; in assay [10], “no binding (tested: 10 ug/ml)”; in assay [12], “no binding (tested: 300 nM)”; in assay [13], “no binding (tested: 300 nM)”; in assay [14] it was “no binding (tested: 300 nM)”; in [15], “no binding (tested: 300 nM)”. The binding result in assay [16] was “no binding (tested: 300 nM)”; in assay [17], “no binding (tested: 300 nM)”; in assay [18], “no binding (tested: 10 ug/ml)”. Besides, the Kd in [11] came out at 13 nM. In addition, in assay [11], the koff amounted to 0.0093 s⁻¹. The molecule also had an association rate constant (kon) in [11] of 710000 M⁻¹ s⁻¹.
